Results on four molecules are retold here after US9868789B2, “Synergistic combinations of OX40L antibodies for the treatment of GvHD” (Kymab Limited, priority 2015, dated 2018).

In one test the target is T1, CHO-S expressed hOX40L (Homo sapiens, UniProt P23510).
T1 construct: expressed in transfected cells
T1 sequence (P23510 1-183): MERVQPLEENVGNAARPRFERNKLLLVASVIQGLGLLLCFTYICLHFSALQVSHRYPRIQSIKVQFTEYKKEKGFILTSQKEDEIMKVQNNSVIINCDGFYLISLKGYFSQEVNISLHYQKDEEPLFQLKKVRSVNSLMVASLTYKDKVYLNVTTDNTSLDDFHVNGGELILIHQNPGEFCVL
The test can be described thus: FACS binding to CHO-S expressed hOX40L. To be noted: binding to hOX40L expressed on CHO-S cells; YES. The method, then: CHO-S cells expressing hOX40L or untransfected CHO-S cells, diluted in FACS buffer (PBS+1% w/v BSA+0.1% w/v NaN3) were distributed to a 96 well V-bottom plate (Greiner) at a density of 1×10^5 cells per well. Cells were washed with 150 μL of PBS and centrifuged at 300×g for 3 min. Supernatant was aspirated and 150 μL of PBS added. This wash step was repeated.
25 μL of hybridoma supernatant or purified antibody from hybridoma supernatant diluted in FACS buffer was added to the washed cells and incubated for 10-15 minutes. Reference Antibody or mouse IgG1 control antibody (Sigma) were diluted in FACS buffer to 20 μg/mL and 25 μL added to cells. 25 μL of human OX40R Fc (in-house) diluted to 1000 ng/mL in FACS buffer were then added to wells. Cells were incubated at 4° C. for 30 minutes.
Cells were washed twice with 150 μL of PBS centrifuging after each wash step and aspirating supernatant (centrifuged at 300×g for 3 minutes).
To detect antibody and receptor binding, 50 μL of Goat anti-human IgG-PE (Jackson ImmunoResearch) and APC anti-mouse IgG (Jackson ImmunoResearch) diluted 1 in 500 in FACS buffer was added to the cells. Cells were incubated 30 minutes at 4° C. in the dark.
To fix cells 100 μL 2% v/v paraformaldehyde was added and cells incubated for 30 minutes at 4° C., cells were pelleted by centrifugation 300×g and the plates and resuspended in 50 μL of FACS buffer. PE and APC signal intensity (geomean) was measured by flow cytometry using a BD FACS Array instrument.
% of control binding was calculated using geomean fluorescence as described in equation 1 where total binding was defined as reference antibody at 10 μg/mL and non-specific binding as mouse IgG1 antibody at 10 μg/mL. % receptor binding was calculated using Equation 3.
Binding of antibodies purified from hybridoma supernatant was carried out as described herein.

Test [1] concerns CD3 primed primary human T lymphocytes. The experiment in a line: Effect of anti-OX40L antibodies on CD3 primed primary human T lymphocytes (IFN-γ release). It counts as cell-based. To be noted: 10 μg/mL, 5 days, four independent donors; versus human IgG4PE isotype control. The procedure: In order to determine whether anti-OX40L had the ability to induce T-cell responses in the absence of OX40L, the assay below was performed using method adapted from Wang et al., Hybridoma (Larchmt)., 2009 Aug.; 28(4):269-76, in which an agonist anti-OX40L antibody was described.
A mouse anti-human CD3 antibody (Becton Dickinson) was diluted to 0.5 μg/mL in sterile PBS and 50 μL/well added to a 96 well high binding sterile plate and incubated overnight at 4° C.
Following overnight incubation, the plate was washed three times with 100 μL of sterile PBS.
T-cells (CD3 positive) were isolated from PBMC derived from leukoreduction system chambers (NHSBT) as described in Example 3. Following isolation, the cells were added to wells in 100 μL to achieve a final concentration of 1×10^5 cells/well.
Test antibodies were diluted in RPMI+10% FBS and 50 μL or 100 μL/well added to cell plate to achieve a final assay concentration of 10 μg/mL. In some cases, a mouse anti-human CD28 antibody (Becton Dickinson) was also added to wells at a final concentration of 1 μg/ml
The assay was incubated for 5 days. After 5 days, harvest supernatants and IFN-γ levels in supernatant were determined as described in Example 5.

For another test, the target named is T2, recombinant hOX40L (Homo sapiens, UniProt P23510).
T2 construct: cDNA encoding the extracellular domain of human OX40L was cloned into a pREP4 expression plasmid; made in house; host or cells: FreeStyle CHO-S, transient expression
T2 sequence (P23510 with tags, fused parts or gaps): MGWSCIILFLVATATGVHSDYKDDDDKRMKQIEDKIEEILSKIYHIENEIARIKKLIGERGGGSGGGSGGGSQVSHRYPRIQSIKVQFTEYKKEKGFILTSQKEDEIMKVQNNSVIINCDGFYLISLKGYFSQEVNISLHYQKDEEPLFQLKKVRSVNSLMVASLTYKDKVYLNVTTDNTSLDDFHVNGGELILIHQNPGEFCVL
The experiment in a line: Surface plasmon resonance, apparent affinity to human OX40L. It counts as binding. To be noted: SPR, 25° C., OX40L at 256 nM; CNROR = Cannot resolve off-rate. The procedure: (§1) SPR analysis was carried out using the ProteOn™ XPR36 Array System (BioRad). Anti-mouse IgG (GE Healthcare BR-1008-38) was immobilised on a GLM biosensor surface using amine coupling, the surface was then blocked using 1 M ethanolamine. Test antibodies were captured on this surface and recombinant hOX40L (human and rhesus) were used at a single concentration of 256 nM, binding sensorgrams were double referenced using a buffer injection (i.e. 0 nM) to remove baseline drift and injection artefacts. Apparent affinities for the OX40L-antibody interaction were determined using the 1:1 model inherent to the ProteOn XPR36 analysis software. The assay was run using HBS-EP (Teknova) as running buffer and carried out at 25° C.

The next test concerns the target Rhesus monkey OX40L. The test can be described thus: Surface plasmon resonance, apparent affinity to rhesus OX40L. It counts as binding, Rhesus (Macaca mulatta). The settings on record: SPR, 25° C., OX40L at 256 nM; CNROR = Cannot resolve off-rate. The procedure:
as §1

The next test relates to allogeneic PBMC/PBMC MLR. The test can be described thus: Allogeneic PBMC/PBMC Mixed Lymphocyte Reaction (IFN-γ release). It counts as cell-based, human. To be noted: compared to the isotype control; one valid experiment. The procedure: PBMCs are isolated from leukoreduction system chambers (NHSBT) using Ficoll-Paque plus (GE Healthcare) density gradient centrifugation. PBMC are pre-incubated with mitomycin C (Sigma) at 10 μg/mL in PBS for one hour at 37° C. Cells are then washed 3 times in PBS centrifuging at 300×g for 3 minutes, aspirating the supernatant after each wash. Allogeneic PBMC (not treated with mitomycin C) are added to a 96-well plate in RPMI supplemented with 10% v/v FBS at a concentration of 2×10^6/ml, 50 μL/well. Anti-OX40L antibodies are diluted in culture media and added to 96 well plate containing PBMC (not mitomycin C treated) at 50 μL/well. Mitomycin C treated PBMC are then added to allogeneic PBMC (not treated with mitomycin C) in 96-well plate at a final cell ratio in range of 1:1 to 4:1 mitomycin C treated to non mitomycin C based on number of cells/well. The cells are incubated for five days at 37° C./5% CO2. After five days TNF-α, IFN-γ, and IL-2 are measured by duoset ELISA (R&D Systems) according to manufacturer's recommendations. Proliferation is measured by CFSE dilution according to manufacturer's recommendations.
PBMCs were isolated from leukoreduction system chambers (NHSBT) using Ficoll-Paque plus (GE Healthcare) density gradient centrifugation. […] After five days, IFN-γ was measured by duoset ELISA (R&D Systems) according to manufacturer's recommendations. […]

Chain of Rhesus monkey OX40L (as listed by the source): as the sequence (P23510 with tags, fused parts or gaps) above, with R77Q, K95E counted along it

B1: 9H04 (hybridoma): murine/human chimeric anti-hOX40L antibody from hybridoma; VH SEQ ID No:66, VL SEQ ID No:80 (antibody, listed as Homo Sapiens, V domains shown)
VH: QVQLVESGGGLVKPGGSLRLSCAASRFTLSDYYMTWIRQAPGKGLEWVSYISSSGNTIYYADSVKGRFTISRDNAKNSLYLQMNSLRAEDTAVYYCARDLSGSYWDYYYGMDVWGQGTTVTVSS
VL: AIQLTQSPSSLSTSVGDRVTIACRASQGINNALAWYQQKPGKAPKLLIYDASSLESGVPSRFSGSGSGTDFTLTISSLQPEDFATYYCQQFNSYPRTFGQGTKVEIK
For B1, in the test with CHO-S expressed hOX40L, the “FACS Binding” value was “YES”.

B2: 10A07 (human): fully human anti-human OX40L antibody reformatted to IgG4-PE; VH SEQ ID No:2, VL SEQ ID No:16 (antibody, listed as Homo Sapiens, V domains shown)
VH: EVQLVESGGVLVQPGGSLRLSCAASGFTFSSYIMTWVRQAPGKGLEWVSGISGSGGGTYYADSMKGRFTISRDNSKNTLYLQMNSLRVEDTAVYYCAKDRLGPITLVRGGYYYGMDVWGQGTTVTVSS
VL: DIQMTQSPSSLSASVGDRVTITCRASQSISDYLNWYQQKPGKAPKFLIYAASSLQSGVPSRFSGSGSGTDFTLTVSSLQPEDFATYYCQQSYSTPRTFGQGTRVEIK
modifications: IgG4-PE constant region
With B2, the “IFN-γ release from CD3 primed T-cells in the absence of OX40L” value in test [1] was “no effect”. In addition, the “Apparent Affinity hOX40L (nM)” value in the test with recombinant hOX40L is “CNROR”. Besides, the “Apparent Affinity RhsOX40L (nM)” value on Rhesus monkey OX40L is reported as “CNROR”. The “IFN-γ release in PBMC/PBMC MLR” value in the test on allogeneic PBMC/PBMC MLR is “inhibited IFN-γ release”.

B3: 10A07 (hybridoma): murine/human chimeric anti-hOX40L antibody purified from hybridoma supernatant; VH SEQ ID No:2, VL SEQ ID No:16 (antibody, listed as Homo Sapiens, V domains shown)
VH: EVQLVESGGVLVQPGGSLRLSCAASGFTFSSYIMTWVRQAPGKGLEWVSGISGSGGGTYYADSMKGRFTISRDNSKNTLYLQMNSLRVEDTAVYYCAKDRLGPITLVRGGYYYGMDVWGQGTTVTVSS
VL: DIQMTQSPSSLSASVGDRVTITCRASQSISDYLNWYQQKPGKAPKFLIYAASSLQSGVPSRFSGSGSGTDFTLTVSSLQPEDFATYYCQQSYSTPRTFGQGTRVEIK
Regarding B3, in the test with recombinant hOX40L, the “Apparent Affinity hOX40L (nM)” value is “CNROR”. Further, in the test with CHO-S expressed hOX40L, the “FACS Binding” value is “YES”. Also, on Rhesus monkey OX40L, the “Apparent Affinity RhsOX40L (nM)” value was “CNROR”.

B4: 2D10 (hybridoma): murine/human chimeric anti-hOX40L antibody purified from hybridoma supernatant; VH SEQ ID No:34, VL SEQ ID No:48 (antibody, listed as Homo Sapiens, V domains shown)
VH: EVQLVESGGGLVQPGGSLRLSCAASGFTFSNYAMNWVRQAPGKGLEWVSTISGSGGATRYADSVKGRFTISRDNSRNTVYLQMNSLRVEDTAVFYCTKDRLIMATVRGPYYYGMDVWGQGTTVTVSS
VL: DIQMTQSPSSLSASVGDRVTITCRASQSISSYLNWYQQKPGKAPNLLIYAASSLQSGVPSRFSGSGSETDFTLTISSLQPEDFATYYCQQSHSVSFTFGPGTKVDIK
On to B4, for which the “Apparent Affinity hOX40L (nM)” value in the test with recombinant hOX40L is “CNROR”. Also, the “FACS Binding” value in the test with CHO-S expressed hOX40L is “YES”. Also, the “Apparent Affinity RhsOX40L (nM)” value on Rhesus monkey OX40L is listed as “CNROR”.
